Reference: publication PMC9860181 (Plant Communications, 2022)
Like-named read-outs stand apart in the source and are kept apart here. Blank lines part the entries; values can stand above or below the binder they belong to.

Legend:
UVR8^W285A-Strep II [1] = target: T1, UVR8^W285A-Strep II (A. thaliana, UniProt Q9FN03 1-440, W285A); experiment: pull-down
T1 sequence: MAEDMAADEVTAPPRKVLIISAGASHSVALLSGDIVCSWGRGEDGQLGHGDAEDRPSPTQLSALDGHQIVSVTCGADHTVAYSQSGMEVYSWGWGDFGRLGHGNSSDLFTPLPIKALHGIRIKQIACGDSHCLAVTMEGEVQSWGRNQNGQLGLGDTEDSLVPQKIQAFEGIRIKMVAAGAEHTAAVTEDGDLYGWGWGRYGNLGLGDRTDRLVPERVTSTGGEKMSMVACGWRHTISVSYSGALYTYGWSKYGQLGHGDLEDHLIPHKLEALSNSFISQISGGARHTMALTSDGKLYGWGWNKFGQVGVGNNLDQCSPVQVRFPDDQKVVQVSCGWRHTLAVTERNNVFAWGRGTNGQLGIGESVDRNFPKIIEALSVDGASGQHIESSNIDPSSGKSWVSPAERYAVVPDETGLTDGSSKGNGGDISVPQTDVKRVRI

UVR8^W285A-Strep II [2] = target: T1, UVR8^W285A-Strep II; experiment: pull-down; remark: listed apart in the source
[3] = target: T2, UVR8^W285A (residues 12–421) (A. thaliana, UniProt Q9FN03 12-421, W285A); experiment: crystal structure
T2 sequence: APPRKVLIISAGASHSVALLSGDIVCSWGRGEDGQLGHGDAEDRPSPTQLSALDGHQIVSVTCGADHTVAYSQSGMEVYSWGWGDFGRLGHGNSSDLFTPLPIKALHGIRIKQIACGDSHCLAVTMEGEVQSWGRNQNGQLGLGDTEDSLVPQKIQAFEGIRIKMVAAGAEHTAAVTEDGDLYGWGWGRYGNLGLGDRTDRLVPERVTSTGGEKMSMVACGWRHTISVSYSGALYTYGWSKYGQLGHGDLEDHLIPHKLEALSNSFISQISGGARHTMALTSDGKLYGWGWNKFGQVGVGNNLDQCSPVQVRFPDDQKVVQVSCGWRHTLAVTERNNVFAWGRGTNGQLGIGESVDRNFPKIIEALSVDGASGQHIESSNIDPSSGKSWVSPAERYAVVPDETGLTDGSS

[4] = target: the molecule itself; experiment: SDS-PAGE of dimer and monomer

B1: REPRESSOR OF UV-B PHOTOMORPHOGENESIS 1 (RUP1), C-terminal 3×Flag (natural protein)
chain: MEALFCSEIPNNNIRSSINDLSSSSSYTWPMIMTSSSSSSSSPTIMNIENIPRCDWDLSLSAVVSSASTGSDAIGAIEFDPTGEIIATGGIARKIRSYRLSSLLESRDDHVTASESYICTPAKLSSLKWRPDFSGRVIGSGDYDGVVTEYDVEKQVPVSERDEHGGRRIWSVDYTLYNGSLIGASGSDDGTVQMWDPRNGGTLEETVRPGGGAAICSVEFDPFGGSSIAVGCADRNAYVYDIRRLVDPLIVLDGHTKTVTYARFMDSHTIVTGSTDGSLKQWDIDNGRRVVRTYRGHVNSRNFVGLSVWRHGGLVVSGSENNQVFVYDKRWEEPVWVCGLGHTNRFGSDRRFVSSVCLRQVDEDWCTLVAGGSDGALEIFSGKQS
binding result (UVR8^W285A-Strep II [1]): binds

B4: UVR8^N396 (residues 1–396) (domain or fragment)
chain: MAEDMAADEVTAPPRKVLIISAGASHSVALLSGDIVCSWGRGEDGQLGHGDAEDRPSPTQLSALDGHQIVSVTCGADHTVAYSQSGMEVYSWGWGDFGRLGHGNSSDLFTPLPIKALHGIRIKQIACGDSHCLAVTMEGEVQSWGRNQNGQLGLGDTEDSLVPQKIQAFEGIRIKMVAAGAEHTAAVTEDGDLYGWGWGRYGNLGLGDRTDRLVPERVTSTGGEKMSMVACGWRHTISVSYSGALYTYGWSKYGQLGHGDLEDHLIPHKLEALSNSFISQISGGWRHTMALTSDGKLYGWGWNKFGQVGVGNNLDQCSPVQVRFPDDQKVVQVSCGWRHTLAVTERNNVFAWGRGTNGQLGIGESVDRNFPKIIEALSVDGASGQHIESSNIDPSS
binding result [4]: binds

Continued, values first:

binding result (UVR8^W285A-Strep II [2]): binds
B2: REPRESSOR OF UV-B PHOTOMORPHOGENESIS 2 (RUP2), C-terminal 3×Flag (natural protein)
chain: MNTLHPHKQQQEQAQQQEEARYEWDLSLSTVVSSSSSSASDVIGAIEFDPTDNIVATAGISRKIRFYGLPSLLRNNAVSGTGVSFVDQATACEYYICTPAKLSSLRWRPGSGGRVIGSGDYDGVVMEYDLEKRTPVFERDEHGGRRVWSVDYTRHGGASTVGASGSDDGTMQVWDPRCPPEESVGVVRPAGICRSAVCCVEFDPSGGPAVAVGCADRKGYVYDIRKLVDPALTLQGHTKTVSYVRFLDGGTVVTAGTDGCLKLWSVEDGRVIRTYEGHVNNRNFVGLSVWRNGALFGCGSENNRVFVYDRRWGKPVWVDGFEPVGMNSGSDKRFVSSVCWRQSGVDQCTLVAGGSDGVLQVYVGKRKP

binding result [3]: binds
B3: RUP2 (residues 21–366) (domain or fragment)
chain: RYEWDLSLSTVVSSSSSSASDVIGAIEFDPTDNIVATAGISRKIRFYGLPSLLRNNAVSGTGVSFVDQATACEYYICTPAKLSSLRWRPGSGGRVIGSGDYDGVVMEYDLEKRTPVFERDEHGGRRVWSVDYTRHGGASTVGASGSDDGTMQVWDPRCPPEESVGVVRPAGICRSAVCCVEFDPSGGPAVAVGCADRKGYVYDIRKLVDPALTLQGHTKTVSYVRFLDGGTVVTAGTDGCLKLWSVEDGRVIRTYEGHVNNRNFVGLSVWRNGALFGCGSENNRVFVYDRRWGKPVWVDGFEPVGMNSGSDKRFVSSVCWRQSGVDQCTLVAGGSDGVLQVYVGKR
